T1: Human BCMA-Avi-His (human, UniProt Q02223 2-54)
T1 chain: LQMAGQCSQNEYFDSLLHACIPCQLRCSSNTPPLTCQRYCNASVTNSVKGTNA

T2: Human BCMA DTA-His (human;, UniProt Q02223 1-54; P00588 33-225)
T2 chain: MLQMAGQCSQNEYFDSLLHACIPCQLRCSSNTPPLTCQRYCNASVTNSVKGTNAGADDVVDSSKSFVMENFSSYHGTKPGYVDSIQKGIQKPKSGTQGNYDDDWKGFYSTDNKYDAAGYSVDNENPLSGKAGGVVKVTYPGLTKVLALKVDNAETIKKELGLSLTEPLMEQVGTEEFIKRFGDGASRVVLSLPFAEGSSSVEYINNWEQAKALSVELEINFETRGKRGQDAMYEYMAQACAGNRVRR


Assays:
Test in all cases: SPR
[1] = biological target: Cyno BCMA DTA-His (cynomolgus;, UniProt A0A2K5UD97 1-53; P00588 33-225)
[2] = biological target: T1, Human BCMA-Avi-His
[3] = biological target: T2, Human BCMA DTA-His
[4] = biological target: Cyno BCMA-Avi-His (cynomolgus, UniProt A0A2K5UD97 2-53)
Cyno BCMA-Avi-His, sequence (A0A2K5UD97 entry or part of it): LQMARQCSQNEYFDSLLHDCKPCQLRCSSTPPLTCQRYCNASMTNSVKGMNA

Row | Binder | Kd [1] [nM] | Kd [2] [nM] | Kd [3] [nM] | Kd [4] [nM]
1 | CA10_parental (antibody, V domains shown) VH: QVQLVESGGGVVQPGRSLRLSCAASGFTFSNFGMHWVRQAPGRGLEWVAVIWSDETNRYYADSVKGRFTVSRDNVKSTVYLQMNSLISEDTAVYYCARDQQYCSSDSCFTWFDPWGQGTLVTVSS VL: QVVVTQESALTTSPGETVTLTCRSSTGTVTPSNYANWVQEKPDHFFTGLIGDNNSRPPGVPARFSASLIGDKAALTITGAQTEDEAMYFCALWFGNQWVFGGGTKVTVL | 0.0314 | 0.0694 | 0.393 | 1.43
2 | CA10 Variant 3 (antibody, V domains shown) VH: QVQLVESGGGVVQPGRSLRLSCAASGFTFSNFGMHWVRQAPGRGLEWVAVIWSDETNRYYADSVKGRFTVSRDNVKSTVYLQMNSLISEDTAVYYCARDQQYCSSDSCFTWFDPWGQGTLVTVSS VL: QTVVTQEPSLTVSPGGTVTLTCASSTGAVTPSNYANWVQQKPGQAPRGLIGDNNIKPPWTPARFSGSLLGGKAALTLSGVQPEDEAEYYCALWYGGQWVFGGGTKLTVL | 0.861 | 0.182 | 0.247 | 11.6
3 | CA10 Variant 2 (antibody, V domains shown) VH: QVQLVESGGGVVQPGRSLRLSCAASGFTFSNFGMHWVRQAPGRGLEWVAVIWSDETNRYYADSVKGRFTVSRDNVKSTVYLQMNSLISEDTAVYYCARDQQYCSSDSCFTWFDPWGQGTLVTVSS VL: QTVVTQEPSLTVSPGGTVTLTCASSTGTVTPSNYANWVQQKPGQAPRGLIGDNNSRPPGTPARFSASLLGGKAALTLSGVQPEDEAEYYCALWFGNQWVFGGGTKLTVL | 0.0915 | 0.0666 | 0.478 | 1.89
4 | CA10 Variant 4 (antibody, V domains shown) VH: QVQLVESGGGVVQPGRSLRLSCAASGFTFSNFGMHWVRQAPGRGLEWVAVIWSDETNRYYADSVKGRFTVSRDNVKSTVYLQMNSLISEDTAVYYCARDQQYCSSDSCFTWFDPWGQGTLVTVSS VL: QTVVTQEPSLTVSPGGTVTLTCASSTGAVTPGYYANWVQQKPGQAPRGLIGDNNNKPPWTPARFSGSLLGGKAALTLSGVQPEDEAEYYCALYYGGQWVFGGGTKLTVL | 13 | 2.57 | 3.07 | 64.2
5 | CA10 Variant 5 (CA10_PE_V5) (antibody, V domains shown) VH: QVQLVESGGGVVQPGRSLRLSCAASGFTFSNFGMHWVRQAPGRGLEWVAVIWSDETNRYYADSVKGRFTVSRDNVKSTVYLQMNSLISEDTAVYYCARDQQYCSSDSCFTWFDPWGQGTLVTVSS VL: QTVVTQEPSLTVSPGGTVTLTCASSTGAVTSGYYANWVQQKPGQAPRALIGDNNIKPSWTPARFSGSLLGGKAALTLSGVQPEDEAEYYCALYYGGQWVFGGGTKLTVL | 1.26 |  |  | 8.55
6 | CA10 Variant 1 (antibody, V domains shown) VH: QVQLVESGGGVVQPGRSLRLSCAASGFTFSNFGMHWVRQAPGRGLEWVAVIWSDETNRYYADSVKGRFTVSRDNVKSTVYLQMNSLISEDTAVYYCARDQQYCSSDSCFTWFDPWGQGTLVTVSS VL: QTVVTQEPSLTVSPGGTVTLTCRSSTGTVTPSNYANWVQQKPDHFFTGLIGDNNSRPPGVPARFSASLIGDKAALTLSGVQPEDEAEYYCALWFGNQWVFGGGTKLTVL | 0.0418 | 0.0573 | 0.247 | 0.732
7 | CA10 Variant 6 (antibody, V domains shown) VH: QVQLVESGGGVVQPGRSLRLSCAASGFTFSNFGMHWVRQAPGRGLEWVAVIWSDETNRYYADSVKGRFTVSRDNVKSTVYLQMNSLISEDTAVYYCARDQQYCSSDSCFTWFDPWGQGTLVTVSS VL: QTVVTQEPSLTVSPGGTVTLTCASSTGTVTPSNYANWVQQKPGQFPRGLIGDNNSRPPGTPARFSASLLGGKAALTLSGVQPEDEAEYYCALWFGNQWVFGGGTKLTVL | 0.0962 | 0.075 | 0.0399 | 1.18
